Source: patent US7264801

What was measured:
[1] = biological target: EG-VEGF receptor (high affinity binding sites) on bovine adrenal cortical capillary endothelial cells (ACE) (bovine); test: displacement of 125I-EG-VEGF by unlabeled tagged EG-VEGF on ACE cells
[2] = biological target: EG-VEGF receptor (high affinity binding sites) on bovine adrenal cortical capillary endothelial cells (ACE) (bovine); test: 125I-EG-VEGF competitive binding on ACE cells, Scatchard analysis
[3] = biological target: EG-VEGF binding component on human umbilical vein endothelial cells (HUVEC) (human); test: displacement of 125I-EG-VEGF by unlabeled tagged EG-VEGF on HUVEC and other non-responsive cells

B1: EG-VEGF-his (human EG-VEGF with C-terminal … tag, baculovirus-produced) (ligand)
chain: AVITGACERDVQCGAGTCCAISLWLRGLRMCTPLGREGEECHPGSHKVPFFRKRKHHTCPCLPNLLCSRFPDGRYRCSMDLKNINFGHHHHHHHH
modifications: 125I-iodinated when used as tracer in the cell binding assays (Iodobead or lactoperoxidase method); the unlabeled form was the competitor and the ELISA antigen
How did the ED50 [1] turn out when B1 was run?
Its ED50 is 10 nM.

What about the Kd [2] of the same binder?
The Kd was 0.9 to 1 nM.

And the competitor concentration that displaces the binding [3]?
Its competitor concentration that displaces the binding is greater than 270 nM.
